We go through three substances from patent publication US20150064134A1.

Some targets named below: IR(h) (human) (UniProt P06213); CaMKIV(h) (human) (UniProt Q16566); PKCβI(h) (human) (UniProt P05771); MSK1(h) (human) (UniProt O75582); MSSK1(h) (human) (UniProt Q9UPE1); PAK2(h) (human) (UniProt Q13177); ROCK-II(h) (human) (UniProt O75116); MRCKβ(h) (human) (UniProt Q9Y5S2); cKit(V654A)(h) (human) (UniProt P10721); CDK2/cyclinA(h) (human) (UniProt P24941).
Holding throughout (experiment): cell-based or functional assay
The target in another experiment is T1, SGK3(h) (human) (UniProt Q96BR1).
T1 sequence (looked up): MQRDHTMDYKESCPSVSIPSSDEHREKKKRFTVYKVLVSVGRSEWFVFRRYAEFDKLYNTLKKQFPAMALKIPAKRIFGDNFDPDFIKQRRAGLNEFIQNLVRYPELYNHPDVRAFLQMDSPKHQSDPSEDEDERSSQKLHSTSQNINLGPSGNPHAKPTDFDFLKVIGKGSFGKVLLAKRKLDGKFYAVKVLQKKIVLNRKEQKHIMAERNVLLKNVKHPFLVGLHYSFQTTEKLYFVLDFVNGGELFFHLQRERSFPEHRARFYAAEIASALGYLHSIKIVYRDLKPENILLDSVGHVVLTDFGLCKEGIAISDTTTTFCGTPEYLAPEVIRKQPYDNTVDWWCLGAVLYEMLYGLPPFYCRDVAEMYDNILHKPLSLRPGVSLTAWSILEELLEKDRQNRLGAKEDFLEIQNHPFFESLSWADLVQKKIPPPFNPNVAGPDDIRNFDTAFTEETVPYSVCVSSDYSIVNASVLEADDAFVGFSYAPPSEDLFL

In a further experiment the target is T2, EphA3(h) (human) (UniProt P29320).
T2 sequence (looked up): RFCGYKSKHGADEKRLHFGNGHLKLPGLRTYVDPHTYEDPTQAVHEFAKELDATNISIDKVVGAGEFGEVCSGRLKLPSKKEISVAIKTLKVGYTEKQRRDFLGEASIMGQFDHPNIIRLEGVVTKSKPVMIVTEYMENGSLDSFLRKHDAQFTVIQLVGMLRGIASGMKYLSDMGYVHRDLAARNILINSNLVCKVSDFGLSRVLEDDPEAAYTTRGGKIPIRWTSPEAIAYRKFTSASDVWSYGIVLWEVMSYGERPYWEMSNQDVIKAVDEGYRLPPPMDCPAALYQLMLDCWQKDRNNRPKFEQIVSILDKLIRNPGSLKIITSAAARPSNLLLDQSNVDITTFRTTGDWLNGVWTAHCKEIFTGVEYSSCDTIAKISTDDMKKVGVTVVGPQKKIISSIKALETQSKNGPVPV

Another experiment deals with T3, TSSK2(h) (human) (UniProt Q96PF2).
T3 sequence (looked up): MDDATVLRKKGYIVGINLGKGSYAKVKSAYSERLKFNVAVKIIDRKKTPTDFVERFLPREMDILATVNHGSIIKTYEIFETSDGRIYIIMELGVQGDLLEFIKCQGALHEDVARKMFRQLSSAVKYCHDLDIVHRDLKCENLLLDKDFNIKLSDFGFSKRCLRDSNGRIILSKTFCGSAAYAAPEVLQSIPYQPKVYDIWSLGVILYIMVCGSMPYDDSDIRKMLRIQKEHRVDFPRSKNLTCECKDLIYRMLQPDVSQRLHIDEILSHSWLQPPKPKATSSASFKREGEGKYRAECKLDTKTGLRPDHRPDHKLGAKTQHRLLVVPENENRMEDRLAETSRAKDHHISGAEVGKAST

Another experiment has as its target T4, EphA1(h) (human) (UniProt P21709).
T4 sequence (looked up): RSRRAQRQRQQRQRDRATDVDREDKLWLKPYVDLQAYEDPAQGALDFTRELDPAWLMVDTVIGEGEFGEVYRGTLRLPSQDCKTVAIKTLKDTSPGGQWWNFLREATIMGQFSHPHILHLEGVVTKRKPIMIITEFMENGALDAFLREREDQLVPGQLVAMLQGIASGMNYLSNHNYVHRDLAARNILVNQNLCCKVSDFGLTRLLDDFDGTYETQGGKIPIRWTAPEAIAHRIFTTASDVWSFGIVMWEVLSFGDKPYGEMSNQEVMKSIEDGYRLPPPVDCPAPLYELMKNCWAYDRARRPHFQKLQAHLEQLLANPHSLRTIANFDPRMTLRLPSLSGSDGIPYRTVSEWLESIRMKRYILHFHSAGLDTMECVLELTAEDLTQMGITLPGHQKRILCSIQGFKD

For a further experiment, the target named is T5, BrSK1(h) (human) (UniProt Q8TDC3).
T5 sequence (looked up): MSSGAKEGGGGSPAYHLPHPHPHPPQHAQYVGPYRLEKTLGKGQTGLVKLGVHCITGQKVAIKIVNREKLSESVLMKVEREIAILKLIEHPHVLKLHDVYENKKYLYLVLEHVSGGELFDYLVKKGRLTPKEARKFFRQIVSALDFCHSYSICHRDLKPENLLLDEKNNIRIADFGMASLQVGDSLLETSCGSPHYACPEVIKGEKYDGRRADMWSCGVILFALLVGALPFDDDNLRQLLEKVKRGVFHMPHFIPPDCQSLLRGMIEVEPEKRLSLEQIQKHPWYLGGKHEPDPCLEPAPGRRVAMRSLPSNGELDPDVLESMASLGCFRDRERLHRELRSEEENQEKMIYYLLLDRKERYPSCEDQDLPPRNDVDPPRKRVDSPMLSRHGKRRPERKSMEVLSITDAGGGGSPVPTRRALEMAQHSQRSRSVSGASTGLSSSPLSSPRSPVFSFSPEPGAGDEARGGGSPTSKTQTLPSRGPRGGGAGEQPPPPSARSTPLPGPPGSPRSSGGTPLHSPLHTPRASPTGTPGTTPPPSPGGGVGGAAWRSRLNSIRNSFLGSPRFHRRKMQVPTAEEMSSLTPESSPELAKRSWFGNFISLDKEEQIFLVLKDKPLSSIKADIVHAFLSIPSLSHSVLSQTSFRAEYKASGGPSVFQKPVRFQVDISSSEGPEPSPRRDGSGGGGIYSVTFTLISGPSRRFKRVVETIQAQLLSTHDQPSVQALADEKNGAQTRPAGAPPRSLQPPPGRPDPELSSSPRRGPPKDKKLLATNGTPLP

Sequence of IR(h) (human) (P06213 1005-1310 limits assumed): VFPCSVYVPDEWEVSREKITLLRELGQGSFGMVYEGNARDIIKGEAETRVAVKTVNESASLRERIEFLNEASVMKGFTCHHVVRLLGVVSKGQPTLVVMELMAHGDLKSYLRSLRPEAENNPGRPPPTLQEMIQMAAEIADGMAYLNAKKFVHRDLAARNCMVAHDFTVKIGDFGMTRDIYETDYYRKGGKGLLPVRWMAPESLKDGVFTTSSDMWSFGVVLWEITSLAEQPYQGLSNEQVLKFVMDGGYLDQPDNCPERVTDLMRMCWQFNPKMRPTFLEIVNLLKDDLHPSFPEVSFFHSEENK
Sequence of PAK2(h) (human) (Q13177 whole entry): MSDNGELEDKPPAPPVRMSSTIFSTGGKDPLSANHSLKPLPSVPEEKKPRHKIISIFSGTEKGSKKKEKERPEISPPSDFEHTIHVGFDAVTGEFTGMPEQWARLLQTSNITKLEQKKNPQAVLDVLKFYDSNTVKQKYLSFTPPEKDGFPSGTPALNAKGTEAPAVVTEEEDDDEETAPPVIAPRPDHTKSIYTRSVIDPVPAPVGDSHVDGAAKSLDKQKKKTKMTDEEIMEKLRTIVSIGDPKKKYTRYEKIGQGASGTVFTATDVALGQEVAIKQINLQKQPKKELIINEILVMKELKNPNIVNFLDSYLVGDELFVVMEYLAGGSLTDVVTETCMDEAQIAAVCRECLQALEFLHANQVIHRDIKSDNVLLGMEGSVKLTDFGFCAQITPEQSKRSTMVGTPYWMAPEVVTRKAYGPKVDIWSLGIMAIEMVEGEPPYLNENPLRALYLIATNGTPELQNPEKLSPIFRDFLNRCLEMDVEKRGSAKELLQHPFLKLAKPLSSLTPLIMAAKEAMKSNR
Sequence of MRCKβ(h) (human) (Q9Y5S2 1-473 limits assumed): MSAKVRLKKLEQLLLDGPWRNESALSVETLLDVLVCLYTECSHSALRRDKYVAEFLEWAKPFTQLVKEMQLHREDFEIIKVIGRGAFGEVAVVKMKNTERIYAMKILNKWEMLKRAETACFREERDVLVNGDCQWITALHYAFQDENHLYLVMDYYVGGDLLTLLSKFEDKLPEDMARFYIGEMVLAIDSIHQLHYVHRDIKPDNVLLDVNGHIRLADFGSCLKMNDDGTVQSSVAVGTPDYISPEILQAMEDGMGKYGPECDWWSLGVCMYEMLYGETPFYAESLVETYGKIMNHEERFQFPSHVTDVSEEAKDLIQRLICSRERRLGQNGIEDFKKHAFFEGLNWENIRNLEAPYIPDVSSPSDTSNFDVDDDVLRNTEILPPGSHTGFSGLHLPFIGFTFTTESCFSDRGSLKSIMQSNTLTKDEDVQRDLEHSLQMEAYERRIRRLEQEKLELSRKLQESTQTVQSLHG
Sequence of cKit(V654A)(h) (human) (P10721 544-976 V654A): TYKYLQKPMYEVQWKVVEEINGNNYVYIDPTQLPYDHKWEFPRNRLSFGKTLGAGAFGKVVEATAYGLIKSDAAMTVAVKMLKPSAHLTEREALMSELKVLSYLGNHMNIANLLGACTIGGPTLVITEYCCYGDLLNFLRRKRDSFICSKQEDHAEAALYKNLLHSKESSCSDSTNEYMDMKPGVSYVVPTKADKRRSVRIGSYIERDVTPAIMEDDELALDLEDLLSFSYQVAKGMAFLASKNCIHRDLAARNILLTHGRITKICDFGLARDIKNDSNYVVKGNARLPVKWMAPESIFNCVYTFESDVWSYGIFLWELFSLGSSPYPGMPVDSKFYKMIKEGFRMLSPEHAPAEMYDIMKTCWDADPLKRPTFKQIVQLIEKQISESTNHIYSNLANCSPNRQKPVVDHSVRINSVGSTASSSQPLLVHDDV

As for MMI-0400 (peptide), the % activity at 100 µM in the experiment with SGK3(h) (human) amounted to 8%; with IR(h) (human), 85%; with EphA3(h) (human) it was 12%; with CaMKIV(h) (human), 18%; with PKCβI(h) (human), 78%; with MSK1(h) (human), 28%. For the same substance, the % activity at 100 µM with MSSK1(h) (human) was found to be 75%; in the experiment with PAK2(h) (human) it was 59%; in the experiment with ROCK-II(h) (human), 77%; with TSSK2(h) (human), 94%; with EphA1(h) (human), 61%; in the experiment with MRCKβ(h) (human), 71%. Besides, the % activity at 100 µM in the experiment with cKit(V654A)(h) (human) was determined as 150%; with CDK2/cyclinA(h) (human) it was 92%; in the experiment with BrSK1(h) (human) it was 76%.

As for MMI-0500 (peptide), the % activity at 100 µM with SGK3(h) (human) was -3%; in the experiment with IR(h) (human) it was 95%; in the experiment with EphA3(h) (human), 33%; with CaMKIV(h) (human) it was -1%; with PKCβI(h) (human), 1%; with MSK1(h) (human) it was 8%. The % activity at 100 µM is 22% with MSSK1(h) (human); 44% with PAK2(h) (human); 2% in the experiment with ROCK-II(h) (human); 92% with TSSK2(h) (human); 40% with EphA1(h) (human); -10% in the experiment with MRCKβ(h) (human). Besides, the values for the % activity at 100 µM in the experiment with cKit(V654A)(h) (human), in the experiment with CDK2/cyclinA(h) (human) and with BrSK1(h) (human) were 223%, 87% and 72%, respectively.

As for MMI-0300 (peptide), the % activity at 100 µM with SGK3(h) (human) is 10%; with IR(h) (human), 96%; in the experiment with EphA3(h) (human), 6%; in the experiment with CaMKIV(h) (human), 17%; with PKCβI(h) (human), 78%; with MSK1(h) (human) it was 32%. In addition, the % activity at 100 µM in the experiment with MSSK1(h) (human) amounted to 77%; in the experiment with PAK2(h) (human) it was 65%; with ROCK-II(h) (human), 74%; in the experiment with TSSK2(h) (human), 98%; with EphA1(h) (human), 73%; in the experiment with MRCKβ(h) (human) it was 83%. Moreover, the figures for the % activity at 100 µM with cKit(V654A)(h) (human), in the experiment with CDK2/cyclinA(h) (human) and in the experiment with BrSK1(h) (human) were 134%, 86% and 67%, respectively.
